Sequences and labels used below:
T1: Tie2 (Homo sapiens, UniProt Q02763)
T1 chain: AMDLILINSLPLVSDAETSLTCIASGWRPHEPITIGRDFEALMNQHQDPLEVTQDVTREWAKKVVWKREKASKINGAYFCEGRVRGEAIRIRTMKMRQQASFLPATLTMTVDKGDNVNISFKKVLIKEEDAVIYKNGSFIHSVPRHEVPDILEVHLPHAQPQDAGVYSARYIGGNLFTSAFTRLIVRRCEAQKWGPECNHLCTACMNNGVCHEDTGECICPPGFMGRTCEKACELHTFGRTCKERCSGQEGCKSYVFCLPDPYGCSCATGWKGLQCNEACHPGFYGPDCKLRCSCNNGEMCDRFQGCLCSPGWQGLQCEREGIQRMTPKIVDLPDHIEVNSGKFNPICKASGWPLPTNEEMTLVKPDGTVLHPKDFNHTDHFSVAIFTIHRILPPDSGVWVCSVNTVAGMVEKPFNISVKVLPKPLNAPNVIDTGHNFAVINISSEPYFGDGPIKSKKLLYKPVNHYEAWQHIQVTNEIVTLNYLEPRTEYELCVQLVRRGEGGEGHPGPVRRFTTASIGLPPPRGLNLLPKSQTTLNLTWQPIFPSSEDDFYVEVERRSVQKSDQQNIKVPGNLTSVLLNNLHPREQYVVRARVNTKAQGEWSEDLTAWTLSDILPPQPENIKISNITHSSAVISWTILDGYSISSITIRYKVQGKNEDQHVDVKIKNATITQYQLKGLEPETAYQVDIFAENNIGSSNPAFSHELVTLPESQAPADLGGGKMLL

B1: activated protein C (APC) (protein)
chain 1: ANSFLEELRHSSLERECIEEICDFEEAKEIFQNVDDTLAFWSKHVDGDQCLVLPLEHPCASLCCGHGTCIDGIGSFSCDCRSGWEGRFCQREVSFLNCSLDNGGCTHYCLEEVGWRRCSCAPGYKLGDDLLQCHPAVKFPCGRPWKRMEKKRSHL
chain 2: LIDGKMTRRGDSPWQVVLLDSKKKLACGAVLIHPSWVLTAAHCMDESKKLLVRLGEYDLRRWEKWELDLDIKEVFVHPNYSKSTTDNDIALLHLAQPATLSQTIVPICLPDSGLAERELNQAGQETLVTGWGYHSSREKEAKRNRTFVLNFIKIPVVPHNECSEVMSNMVSENMLCAGILGDRQDACEGDSGGPMVASFHGTWFLVGLVSWGEGCGLLHNYGVYTKVSRYLDWIHGHIRDKEAPQKSWAP
B2: Angiopoietin-2 (Ang2) (protein)
chain: YNNFRKSMDSIGKKQYQVQHGSCSYTFLLPEMDNCRSSSSPYVSNAVQRDAPLEYDDSVQRLQVLENIMENNTQWLMKLENYIQDNMKKEMVEIQQNAVQNQTAVMIEIGTNLLNQTAEQTRKLTDVEAQVLNQTTRLELQLLEHSLSTNKLEKQILDQTSEINKLQDKNSFLEKKVLAMEDKHIIQLQSIKEEKDQLQVLVSKQNSIIEELEKKIVTATVNNSVLQKQQHDLMETVNNLLTMMSTSNSAKDPTVAKEEQISFRDCAEVFKSGHTTNGIYTLTFPNSTEEIKAYCDMEAGGGGWTIIQRREDGSVDFQRTWKEYKVGFGNPSGEYWLGNEFVSQLTNQQRYVLKIHLKDWEGNEAYSLYEHFYLSSEELNYRIHLKGLTGTAGKISSISQPGNDFSTKDGDNDKCICKCSQMLTGGWWFDACGPSNLNGMYYPQRQNTNKFNGIKWYYWKGSGYSLKATTMMIRPADF
B3: Angiopoietin-1 (Ang1) (protein)
chain: HIGCSNQRRSPENSGRRYNRIQHGQCAYTFILPEHDGNCRESTTDQYNTNALQRDAPHVEPDFSSQKLQHLEHVMENYTQWLQKLENYIVENMKSEMAQIQQNAVQNHTATMLEIGTSLLSQTAEQTRKLTDVETQVLNQTSRLEIQLLENSLSTYKLEKQLLQQTNEILKIHEKNSLLEHKILEMEGKHKEELDTLKEEKENLQGLVTRQTYIIQELEKQLNRATTNNSVLQKQQLELMDTVHNLVNLCTKEGVLLKGGKREEEKPFRDCADVYQAGFNKSGIYTIYINNMPEPKKVFCNMDVNGGGWTVIQHREDGSLDFQRGWKEYKMGFGNPSGEYWLGNEFIFAITSQRQYMLRIELMDWEGNRAYSQYDRFHIGNEKQNYRLYLKGHTGTAGKQSSLILHGADFSTKDADNDNCMCKCALMLTGGWWFDACGPSNLNGMFYTAGQNHGKLNGIKWHYFKGPSYSLRSTTMMIRPLDF

The target in the assay is T1, Tie2. Nature of the assay: SPR (Biacore).
With B1, the dissociation constant (Kd) – broadly, the free concentration of one partner at which half of the binding sites on the other are occupied at equilibrium, for simple one-to-one binding – turned out to be 3 pM.

The molecule B2 yielded a Kd of 32 pM.

As for B3, binding was put at a Kd of 2 pM.

The values are drawn from publication PMC6763540 (2013).
